Blank lines part the entries; values can stand above or below the binder they belong to.
Key:
[1] = target: T1, hSIRPβ1 transcript variant 3/hSIRPβL (human, UniProt Q5TFQ8 30-398); assay: CELISA, CHO-K1 transfectants; average of two experiments
T1 construct: also called human SIRPβL
Experimental: The binding specificity of antibodies hSIRPα.40A and hSIRPα.50A to hSIRPα were compared in a CELISA format. In short, CHO-K1 cells were transiently transfected with hSIRPαV1, hSIRPαV2, hSIRPβ1, hSIRPβL, and hSIRPγ cDNAs. Subsequently, hSIRPα binding was assessed by CELISA using CHO-K1.hSIRPαV1, CHO-K1.hSIRPαV2, CHO-K1.hSIRPβ1, CHO-K1.hSIRPβL, and CHO-K1.hSIRPγ cells. Detection of bound antibody was done with goat-anti-mouse IgG-HRP (Southern Biotech).

[2] = target: T2, hSIRPα expressed on primary human cells (human, UniProt P78324 31-504); assay: flow cytometry on CD14+ enriched monocytes, human donor 1, AF647 goat-anti-mouse IgG
T2 construct: whole, on cells; also called hSIRPα on primary human CD14+ monocytes; on primary human granulocytes
T2 sequence (P78324 31-504): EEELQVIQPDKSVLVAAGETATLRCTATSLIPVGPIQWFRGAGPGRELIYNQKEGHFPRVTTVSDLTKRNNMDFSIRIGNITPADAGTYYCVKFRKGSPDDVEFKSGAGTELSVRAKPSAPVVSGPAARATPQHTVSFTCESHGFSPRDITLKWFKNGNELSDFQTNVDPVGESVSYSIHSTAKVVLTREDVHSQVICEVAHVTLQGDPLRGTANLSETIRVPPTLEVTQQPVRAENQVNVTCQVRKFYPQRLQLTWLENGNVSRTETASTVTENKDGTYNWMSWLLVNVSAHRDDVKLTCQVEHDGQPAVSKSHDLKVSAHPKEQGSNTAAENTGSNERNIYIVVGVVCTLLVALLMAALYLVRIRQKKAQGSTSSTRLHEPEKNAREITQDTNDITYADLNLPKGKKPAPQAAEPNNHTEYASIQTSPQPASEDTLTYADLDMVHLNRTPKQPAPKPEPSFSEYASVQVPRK
Experimental: Next, the binding of hSIRPα.40A to hSIRPα expressed on primary human CD14⁺ monocytes was investigated. In addition, the ability of hSIRPα.40A to block the interaction between hSIRPα and recombinant hCD47/Fc-protein was assessed. For this purpose, CD14+ monocytes were isolated from Ficoll-purified human peripheral blood mononuclear cells (PBMCs) using RosetteSep human monocyte enrichment cocktail (Stemcell). The percentage of monocytes present after the enrichment was determined by flow cytometry on the FACSVerse (BD Biosciences) based on CD14 staining using an APC-Cy7-conjugated mouse-anti-human CD14 detection antibody (BD Biosciences). […] After this labeling procedure, cells were washed two times, resuspended in PBS/1% BSA containing 0.1 μg/mL DAPI (BioLegend), and analysed by flow cytometry on the FACSVerse (BD Biosciences). Data were processed and analysed with FlowJo V10 software (FlowJo, LLC).
To assess the blocking ability of hSIRPα.40A, CD14+ enriched monocytes cells were seeded in 96-well round bottomed tissue culture plates and incubated for 45 minutes with FcR Blocking Reagent (Miltenyi Biotec) and hSIRPα.40A antibody (20 μg/mL and dilutions thereof) in PBS/1% BSA at 4° C. […] After this labeling procedure, cells were washed two times, resuspended in PBS/1% BSA containing 0.1 μg/mL DAPI (BioLegend), and analysed by flow cytometry on the FACSVerse (BD Biosciences). […]

[3] = target: T2, hSIRPα expressed on primary human cells; assay: flow cytometry on CD14+ enriched monocytes, human donor 1; blocked ligand: DyLight 488-labeled recombinant hCD47/Fc
Experimental: To assess the blocking ability of hSIRPα.40A, CD14+ enriched monocytes cells were seeded in 96-well round bottomed tissue culture plates and incubated for 45 minutes with FcR Blocking Reagent (Miltenyi Biotec) and hSIRPα.40A antibody (20 μg/mL and dilutions thereof) in PBS/1% BSA at 4° C. […] After this labeling procedure, cells were washed two times, resuspended in PBS/1% BSA containing 0.1 μg/mL DAPI (BioLegend), and analysed by flow cytometry on the FACSVerse (BD Biosciences). Data were processed and analysed with FlowJo V10 software (FlowJo, LLC). […] IC50 values represent the concentration at which half of the inhibition is observed.

human SIRPβ1 = target: T3, human SIRPβ1 (human, UniProt O00241 30-398); assay: CELISA, CHO-K1 transfectants
T3 construct: also called hSIRPβ1
T3 sequence (O00241 30-398 limits assumed): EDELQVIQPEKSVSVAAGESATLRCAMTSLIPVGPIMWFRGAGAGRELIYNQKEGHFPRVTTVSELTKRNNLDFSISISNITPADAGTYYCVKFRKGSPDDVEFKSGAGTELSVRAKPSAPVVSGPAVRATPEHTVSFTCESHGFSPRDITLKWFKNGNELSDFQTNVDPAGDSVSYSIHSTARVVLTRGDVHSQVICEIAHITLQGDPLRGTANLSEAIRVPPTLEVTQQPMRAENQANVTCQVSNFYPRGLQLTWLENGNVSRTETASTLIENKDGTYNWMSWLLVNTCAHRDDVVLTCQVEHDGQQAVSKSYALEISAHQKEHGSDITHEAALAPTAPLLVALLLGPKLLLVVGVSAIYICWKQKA
Experimental: (§1) Reactivity was confirmed using CHO-K1 cells (ATCC CCL-61) expressing a cDNA encoding the full length open reading frame of hSIRPαV1, hSIRPαV1(P74A), hSIRPαV2, and hSIRPβ1 subcloned into the pCI-neo vector (Promega, Madison, Wis.). CHO-K1.hSIRPαV1, CHO-K1.hSIRPαV1(P74A), CHO-K1.hSIRPαV2, and CHO-K1.hSIRPβ1 cells were seeded in culture medium (DMEM-F12 (Gibco) supplemented with 5% New Born Calf Serum (BioWest) and Pen/Strep (Gibco)) in 96-well flat-bottom tissue culture plates and incubated at 37° C., 5% CO₂ and 95% humidity for 24 hours. Subsequently, culture medium was removed and cells were incubated for 1 hour at 37° C., 5% CO₂ and 95% humidity with purified hSIRPα antibodies (used at 10 μg/mL and dilutions thereof). Next, cells were washed with PBS-T and incubated for 1 hour at 37° C., 5% CO₂ and 95% humidity with goat-anti-mouse IgG-HRP (Southern Biotech). Subsequently, cells were washed three times with PBS-T and immunoreactivity against hSIRPαV1, hSIRPαV1(P74A), hSIRPαV2, and hSIRPβ1 was visualized with TMB Stabilized Chromogen (Invitrogen). Reactions were stopped with 0.5 M H₂SO₄ and absorbances were read at 450 and 610 nm.

hSIRPαV1(P74A) = target: T4, hSIRPαV1(P74A) (human, UniProt P78324 31-504); assay: CELISA, CHO-K1 transfectants
T4 construct: also called P74A variant of hSIRPαV1
Experimental: as §1

T1 sequence (Q5TFQ8 30-398 limits assumed, change not shown): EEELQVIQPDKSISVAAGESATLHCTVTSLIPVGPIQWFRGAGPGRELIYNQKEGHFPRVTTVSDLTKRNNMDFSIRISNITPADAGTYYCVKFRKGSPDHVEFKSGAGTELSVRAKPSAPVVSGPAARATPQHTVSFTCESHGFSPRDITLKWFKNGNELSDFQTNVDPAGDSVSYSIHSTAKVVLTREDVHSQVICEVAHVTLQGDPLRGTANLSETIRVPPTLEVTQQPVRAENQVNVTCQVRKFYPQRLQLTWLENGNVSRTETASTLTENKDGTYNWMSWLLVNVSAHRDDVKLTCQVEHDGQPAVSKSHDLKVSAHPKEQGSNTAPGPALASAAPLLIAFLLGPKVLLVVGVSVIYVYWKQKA

EC50 [1]: 0.632 nM
B1: hSIRPα.50A (antibody, V domains shown)
VH: QVQLQQSGPELVKPGASVRISCKASGFTFTNYYIHWVKQRPGQGLEWIGWIYPGNVNTKYNEKFKAKATLTADKSSTTAYMQLSSLASEDSAVYFCARPTIIATDFDVWGAGTTVTVSS
VL: DIVMTQSHKFMSTSVGDRVNITCKASQGVGTAVGWYQQKPGQSPRLLIYWASTRHTGVPDRFTGSGSGTDFSLAISNVQSEDLADYFCQQYSTYPFTFGGGTNLEIK
notes: light chain constant domain not tied; also called mouse hSIRPα.50A; hSIRPα.50A.mIgG1

EC50 (read off the curve) [2]: ~1 nM
IC50 (read off the curve) [3]: ~0.4 nM
B2: hSIRPα.40A (antibody, mouse IgG1, kappa, V domains shown)
VH: EVQFQQSGTVLARPGTSVKMSCKASGSTFTSYWMHWVKQGPGQGLQWIGAIYPVNNDTTYNQKFKGKAELTVVTSTSTAYMEVSSLTNEDSAVYYCTRSFYYSLDAAWFVYWGQGTLVTVSA
VL: DIQMTQSPSSLSASLGERVSLTCRASQDIGSRLNWLQQEPDGTIKRLIYATSSLDSGVPKRFSGSRSGSDYSLTISGLESEDFVDYYCLQYASSPFTFGGGTKLEINR
notes: mouse antibody, full chains without signal peptide; also called mouse hSIRPα.40A

EC50 (human SIRPβ1): 0.033 nM
EC50 (hSIRPαV1(P74A)): 0.049 nM
B3: KWAR23 (antibody, V domains shown)
VH: EVQLQQSGAELVKPGASVKLSCTASGFNIKDYYIHWVQQRTEQGLEWIGRIDPEDGETKYAPKFQDKATITADTSSNTAYLHLSSLTSEDTAVYYCARWGAYWGQGTLVTVSS
VL: QIVLTQSPAIMSASPGEKVTLTCSASSSVSSSYLYWYQQKPGSSPKLWIYSTSNLASGVPARFSGSGSGTSYSLTISSMEAEDAASYFCHQWSSYPRTFGAGTKLELK

— patent US20180312587A1 (ADURO BIOTECH HOLDINGS EUROPE B V, published 2018)
